{"source": "paper PMC5787804", "about": "“Communication between N terminus and loop2 tunes Orai activation” (The Journal of Biological Chemistry, 2017)", "target": "T1, Orai3-L2 (aa 111–161, mutation C118G) (human, UniProt Q9BRQ5 111-161, C118G, conjugated to amino-functionalized AFM cantilever tips via a flexible NHS-PEG18-acetal cross-linker)", "T1 construct": "human Orai3 loop2, aa 111–161; also called Orai3-loop2; source: synthetic peptide (custom-synthesized, >95% purity, Synpeptide)", "test": "AFM single-molecule force spectroscopy; loop2 peptide tethered to the cantilever tip via a PEG linker, Orai1-NT peptide immobilised on silicon chips; room temperature, HBS buffer (150 mM NaCl, 5 mM Hepes); pulling velocity 50-8000 nm/s; koff from the Bell-Evans single energy barrier model", "conditions": "both partners purified", "data": [{"binder": "SMQALSWRKLYLSRAKLKASSRC (added C-terminal cysteine for site-specific coupling; immobilized on silicon chips via NHS-PEG27-maleimide linkers, human Orai1 N terminus, aa 70–91; added C-terminal cysteine for site-specific coupling (told in words); also called Orai1 70–91; non-truncated Orai1 NT; source: synthetic peptide (custom-synthesized, >95% purity, DgPeptides))", "note": "[Orai1-NT 70–91]", "values": [{"measurement": "binding result", "result": "binds"}]}]}
